Source: US20150258192A1, “COMPOSITIONS AND METHODS FOR PREVENTING OR TREATING CHRONIC LUNG ALLOGRAFT DYSFUNCTION (CLAD) AND IDIOPATHIC PULMONARY FIBROSIS (IPF)” (priority 2014, published 2015)
No end group written: not given here.

Experiments:
Assay in all cases: Kinase Profiling Assay
Assay type in all cases: biochemical
Details in all cases: peptide 100 μM
ALK4(h) = biological target: T1, ALK4(h) (Homo sapiens, UniProt P36896)
T1 sequence (P36896 24-505): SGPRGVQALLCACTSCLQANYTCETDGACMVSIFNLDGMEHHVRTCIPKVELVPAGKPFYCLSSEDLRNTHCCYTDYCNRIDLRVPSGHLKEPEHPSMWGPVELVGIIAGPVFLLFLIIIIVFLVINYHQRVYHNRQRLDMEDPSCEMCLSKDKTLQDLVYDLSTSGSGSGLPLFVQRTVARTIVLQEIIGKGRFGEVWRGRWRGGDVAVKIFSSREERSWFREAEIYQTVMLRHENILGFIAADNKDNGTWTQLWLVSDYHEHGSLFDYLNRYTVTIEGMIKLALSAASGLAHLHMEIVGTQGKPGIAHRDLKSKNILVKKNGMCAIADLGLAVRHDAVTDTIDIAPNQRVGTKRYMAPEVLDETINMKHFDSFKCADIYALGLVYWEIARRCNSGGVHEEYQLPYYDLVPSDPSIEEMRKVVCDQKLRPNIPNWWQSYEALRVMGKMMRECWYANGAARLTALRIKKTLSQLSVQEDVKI
Summary of the method: (§1)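 Measured twice per kinase, activity in presence of MK2 inhibitory peptide was calculated against a 100% activity control after radiometric phosphorylation of a cationic substrate, anionic filter capture and scintillation counting; one of 266 human kinases profiled for specificity.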

EphB3(h) = biological target: T2, EphB3(h) (Homo sapiens, UniProt P54753)
T2 sequence (P54753 34-998): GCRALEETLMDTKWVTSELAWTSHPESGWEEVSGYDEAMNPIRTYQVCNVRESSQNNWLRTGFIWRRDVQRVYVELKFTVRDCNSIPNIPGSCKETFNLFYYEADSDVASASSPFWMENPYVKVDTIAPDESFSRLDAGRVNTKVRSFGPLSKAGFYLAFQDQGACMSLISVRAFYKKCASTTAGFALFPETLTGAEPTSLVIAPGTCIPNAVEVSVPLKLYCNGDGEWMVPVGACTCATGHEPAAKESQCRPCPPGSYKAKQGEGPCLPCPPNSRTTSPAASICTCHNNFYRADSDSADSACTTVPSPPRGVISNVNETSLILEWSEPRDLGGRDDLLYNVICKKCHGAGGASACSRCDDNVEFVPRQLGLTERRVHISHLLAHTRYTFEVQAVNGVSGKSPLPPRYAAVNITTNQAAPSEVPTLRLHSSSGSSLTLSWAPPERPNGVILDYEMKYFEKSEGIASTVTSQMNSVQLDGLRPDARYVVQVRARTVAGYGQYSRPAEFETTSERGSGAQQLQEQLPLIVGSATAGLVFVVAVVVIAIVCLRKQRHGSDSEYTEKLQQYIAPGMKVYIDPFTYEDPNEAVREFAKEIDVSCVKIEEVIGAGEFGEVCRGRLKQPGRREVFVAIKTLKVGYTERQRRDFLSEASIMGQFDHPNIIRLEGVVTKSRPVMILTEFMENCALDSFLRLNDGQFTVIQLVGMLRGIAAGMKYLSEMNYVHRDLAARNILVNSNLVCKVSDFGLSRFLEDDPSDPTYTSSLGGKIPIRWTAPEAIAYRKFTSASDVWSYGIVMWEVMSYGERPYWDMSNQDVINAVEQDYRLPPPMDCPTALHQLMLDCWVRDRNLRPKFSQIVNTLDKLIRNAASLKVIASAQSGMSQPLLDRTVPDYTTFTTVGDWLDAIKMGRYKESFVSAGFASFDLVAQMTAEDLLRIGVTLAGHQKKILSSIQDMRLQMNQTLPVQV
Summary of the method: as §1

FGFR3(h) = FGFR3(h) (Homo sapiens, UniProt P22607)
Summary of the method: as §1

MSK2(h) = biological target: T3, MSK2(h) (Homo sapiens, UniProt O75676)
T3 construct: purchased Millipore
Summary of the method: as §1

EphA3(h) = biological target: T4, EphA3(h) (Homo sapiens, UniProt P29320)
T4 sequence (P29320 21-983): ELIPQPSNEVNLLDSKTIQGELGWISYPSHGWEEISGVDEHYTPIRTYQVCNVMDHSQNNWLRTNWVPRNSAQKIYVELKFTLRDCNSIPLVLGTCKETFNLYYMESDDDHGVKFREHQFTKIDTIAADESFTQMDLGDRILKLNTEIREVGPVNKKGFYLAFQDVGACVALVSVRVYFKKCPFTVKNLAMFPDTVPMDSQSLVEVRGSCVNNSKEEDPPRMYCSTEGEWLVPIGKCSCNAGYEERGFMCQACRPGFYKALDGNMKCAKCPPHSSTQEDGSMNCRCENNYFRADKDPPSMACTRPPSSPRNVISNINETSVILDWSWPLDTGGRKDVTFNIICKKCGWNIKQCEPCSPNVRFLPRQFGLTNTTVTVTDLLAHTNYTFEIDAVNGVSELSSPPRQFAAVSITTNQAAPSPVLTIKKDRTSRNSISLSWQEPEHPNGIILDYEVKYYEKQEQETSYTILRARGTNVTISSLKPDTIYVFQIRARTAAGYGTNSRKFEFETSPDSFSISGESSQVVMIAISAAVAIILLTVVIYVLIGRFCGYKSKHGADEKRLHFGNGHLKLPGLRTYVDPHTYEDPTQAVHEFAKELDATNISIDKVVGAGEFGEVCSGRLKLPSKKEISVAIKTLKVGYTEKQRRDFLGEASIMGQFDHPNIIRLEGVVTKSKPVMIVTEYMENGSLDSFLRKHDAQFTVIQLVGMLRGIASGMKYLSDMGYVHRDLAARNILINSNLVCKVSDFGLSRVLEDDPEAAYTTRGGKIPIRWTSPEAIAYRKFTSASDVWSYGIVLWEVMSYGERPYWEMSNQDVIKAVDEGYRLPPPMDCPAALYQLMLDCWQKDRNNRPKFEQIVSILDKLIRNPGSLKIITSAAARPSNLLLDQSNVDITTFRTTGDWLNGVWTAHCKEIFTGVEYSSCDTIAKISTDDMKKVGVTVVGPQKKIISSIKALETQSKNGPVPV
Summary of the method: as §1

RIPK2(h) = RIPK2(h) (Homo sapiens, UniProt O43353)
Summary of the method: as §1

Chain of FGFR3(h) (P22607 23-806): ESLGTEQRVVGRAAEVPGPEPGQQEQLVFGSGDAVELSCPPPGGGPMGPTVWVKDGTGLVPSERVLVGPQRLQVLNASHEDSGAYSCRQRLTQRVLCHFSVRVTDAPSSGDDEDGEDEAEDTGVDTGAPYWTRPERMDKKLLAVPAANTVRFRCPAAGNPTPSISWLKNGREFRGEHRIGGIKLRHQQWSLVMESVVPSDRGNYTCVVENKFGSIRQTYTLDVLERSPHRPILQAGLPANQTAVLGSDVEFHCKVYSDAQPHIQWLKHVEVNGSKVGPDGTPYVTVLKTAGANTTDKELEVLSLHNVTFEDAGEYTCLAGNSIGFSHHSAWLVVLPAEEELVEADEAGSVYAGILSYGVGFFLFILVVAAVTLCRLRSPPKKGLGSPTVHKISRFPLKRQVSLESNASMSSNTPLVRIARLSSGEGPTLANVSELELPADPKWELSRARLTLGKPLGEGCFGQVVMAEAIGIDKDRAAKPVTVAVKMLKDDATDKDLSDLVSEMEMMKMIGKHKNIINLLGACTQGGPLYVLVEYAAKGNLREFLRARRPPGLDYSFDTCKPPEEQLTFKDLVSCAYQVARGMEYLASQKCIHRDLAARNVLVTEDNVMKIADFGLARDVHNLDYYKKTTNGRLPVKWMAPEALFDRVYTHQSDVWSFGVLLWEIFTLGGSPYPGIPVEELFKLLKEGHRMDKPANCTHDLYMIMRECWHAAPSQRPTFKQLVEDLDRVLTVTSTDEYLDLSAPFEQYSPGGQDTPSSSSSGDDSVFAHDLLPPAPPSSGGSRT
Chain of RIPK2(h) (O43353 whole entry): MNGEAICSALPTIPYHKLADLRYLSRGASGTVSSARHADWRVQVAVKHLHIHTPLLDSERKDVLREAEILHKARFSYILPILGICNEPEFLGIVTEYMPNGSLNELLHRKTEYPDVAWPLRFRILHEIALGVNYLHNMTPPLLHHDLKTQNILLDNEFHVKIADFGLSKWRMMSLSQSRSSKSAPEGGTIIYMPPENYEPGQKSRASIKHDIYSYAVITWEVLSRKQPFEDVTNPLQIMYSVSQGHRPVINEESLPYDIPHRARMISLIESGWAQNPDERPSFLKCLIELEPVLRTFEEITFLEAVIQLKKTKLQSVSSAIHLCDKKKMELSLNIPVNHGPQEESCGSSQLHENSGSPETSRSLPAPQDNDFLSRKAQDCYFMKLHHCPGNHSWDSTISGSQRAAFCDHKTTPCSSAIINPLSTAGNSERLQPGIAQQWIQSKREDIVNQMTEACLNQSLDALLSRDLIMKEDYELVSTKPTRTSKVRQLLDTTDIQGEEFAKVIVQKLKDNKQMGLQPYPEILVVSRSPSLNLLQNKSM
T3 sequence (O75676 whole entry): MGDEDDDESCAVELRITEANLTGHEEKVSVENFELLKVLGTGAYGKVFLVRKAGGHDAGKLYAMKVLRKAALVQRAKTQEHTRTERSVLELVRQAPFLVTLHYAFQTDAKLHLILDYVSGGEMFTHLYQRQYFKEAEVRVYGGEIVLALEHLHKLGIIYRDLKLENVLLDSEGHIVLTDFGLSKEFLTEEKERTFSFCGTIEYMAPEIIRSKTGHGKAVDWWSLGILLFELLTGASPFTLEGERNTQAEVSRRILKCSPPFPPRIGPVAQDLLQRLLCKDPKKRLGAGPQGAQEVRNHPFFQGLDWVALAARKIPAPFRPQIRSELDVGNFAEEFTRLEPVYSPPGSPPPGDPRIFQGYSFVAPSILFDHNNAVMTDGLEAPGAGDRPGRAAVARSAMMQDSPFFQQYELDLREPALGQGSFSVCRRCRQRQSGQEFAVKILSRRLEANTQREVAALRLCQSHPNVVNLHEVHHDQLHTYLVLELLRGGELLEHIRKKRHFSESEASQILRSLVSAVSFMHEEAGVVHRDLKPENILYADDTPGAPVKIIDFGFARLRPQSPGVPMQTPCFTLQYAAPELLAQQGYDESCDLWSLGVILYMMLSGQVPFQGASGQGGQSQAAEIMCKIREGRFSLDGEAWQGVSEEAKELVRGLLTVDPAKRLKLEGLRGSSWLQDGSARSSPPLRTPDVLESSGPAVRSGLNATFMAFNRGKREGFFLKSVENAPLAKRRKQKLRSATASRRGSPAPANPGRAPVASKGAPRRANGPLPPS

Row | Sequence | % activity (ALK4(h)) [%] | % activity (EphB3(h)) [%] | % activity (FGFR3(h)) [%] | % activity (MSK2(h)) [%] | % activity (EphA3(h)) [%] | % activity (RIPK2(h)) [%]
1 | KAFAKLAARLYRKALARQLGVAA [MMI-0400] | 130 | 47 | 0 | 52 | 12 | 98
2 | FAKLAARLYRKALARQLGVAA [MMI-0300] | 140 | 62 | – | 56 | 6 | 97
3 | YARAAARQARAKALARQLGVAA [MMI-0100] | 124 | – | 73 | – | – | –
4 | HRRIKAWLKKIKALARQLGVAA (Mammal) [MMI-0500] | 81 | 79 | 10 | 14 | 33 | 30
5 | YARAAARQARAKALNRQLGVA (Mammal) [MMI-0200] | 152 | 128 | 208 | 88 | – | 98
